The record followed here is article PMC12525494.

Test [1] addresses ST2 receptor on Raw 264.7 cells (mouse (endogenous in Raw 264.7)) (UniProt P14719).
The target is the same in test [2]. This is another data set of the same source.

UniProt P14719, sequence (P14719 27-567): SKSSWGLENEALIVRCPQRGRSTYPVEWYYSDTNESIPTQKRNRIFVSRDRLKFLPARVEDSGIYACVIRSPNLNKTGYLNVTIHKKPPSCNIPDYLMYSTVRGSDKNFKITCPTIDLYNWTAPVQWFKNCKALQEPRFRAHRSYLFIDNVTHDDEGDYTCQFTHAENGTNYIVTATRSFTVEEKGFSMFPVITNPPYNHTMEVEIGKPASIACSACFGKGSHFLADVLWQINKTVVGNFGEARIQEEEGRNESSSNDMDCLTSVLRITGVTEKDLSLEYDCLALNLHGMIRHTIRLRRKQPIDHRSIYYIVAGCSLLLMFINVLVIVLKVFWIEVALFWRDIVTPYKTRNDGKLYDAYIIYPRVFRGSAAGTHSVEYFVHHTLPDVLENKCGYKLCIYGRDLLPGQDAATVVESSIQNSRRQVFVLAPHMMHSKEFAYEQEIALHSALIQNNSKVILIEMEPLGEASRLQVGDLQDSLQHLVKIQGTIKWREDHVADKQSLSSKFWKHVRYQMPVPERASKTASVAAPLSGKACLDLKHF

Turning to “immunotoxin IL-33αS (murine IL-33 fused to the ribotoxin α-sarcin) (from UniProt P00655 28-177)”, the MTT viability of Raw 264.7 cells, IC50 at 72 h in test [1] amounted to 300 nM. In addition, in test [2], the Viability (%) on Raw 264.7 cell line, 1 µM protein, 72 h was determined as 40%.
